This note sets out measurements from PMC2844450.

Holding throughout (assay): enzyme inhibition kinetics
The target in test [1] is Factor Xa (activated factor X), plasma protein.
The target of test [2] is fXa-D189S (factor Xa with Asp-189 replaced by Ser).
The target in test [3] is Bovine α-chymotrypsin (bovine).
Test [4] has as its target Factor Xa (activated factor X), plasma protein. This is another data set of the same source.
The target in test [5] is fXa-D189S (factor Xa with Asp-189 replaced by Ser). This is another data set of the same source.

In test [1], “Human wild-type antithrombin (from UniProt P01008 33-464) (natural protein)” registered a k2 (second-order association rate constant of inhibition), no heparin of 3090 M⁻¹ s⁻¹ and a k2 with heparin of 4.35e+07 M⁻¹ s⁻¹. In test [2], this molecule came in with a KD with heparin (ternary encounter complex, first step) of 194 nM; a k2 with heparin of 1.02e+06 M⁻¹ s⁻¹; a k2 with heparin (k/KD) of 1e+06 M⁻¹ s⁻¹. The k2 (second-order association rate constant of inhibition), no heparin in test [3] was found to be 83 M⁻¹ s⁻¹.
Regarding “ZPI in complex with protein Z (PZ) (from UniProt Q9UK55 22-444; P22891 41-400)”, the values for the k2 (second-order rate constant of inhibition), presence of PZ in test [1] and in test [2] were 780000 and 830000, respectively.

B1: Protein Z-dependent protease inhibitor, wild type (natural protein)
chain: LAPSPQSPETPAPQNQTSRVVQAPKEEEEDEQEASEEKASEEEKAWLMASRQQLAKETSNFGFSLLRKISMRHDGNMVFSPFGMSLAMTGLMLGATGPTETQIKRGLHLQALKPTKPGLLPSLFKGLRETLSRNLELGLTQGSFAFIHKDFDVKETFFNLSKRYFDTECVPMNFRNASQAKRLMNHYINKETRGKIPKLFDEINPETKLILVDYILFKGKWLTPFDPVFTEVDTFHLDKYKTIKVPMMYGAGKFASTFDKNFRCHVLKLPYQGNATMLVVLMEKMGDHLALEDYLTTDLVETWLRNMKTRNMEVFFPKFKLDQKYEMHELLRQMGIRRIFSPFADLSELSATGRNLQVSRVLQRTVIEVDERGTEAVAGILSEITAYSMPPVIKVDRPFHFMIYEETSGMLLFLGRVVNPTLL
Turning to B1, the k2 (second-order rate constant of inhibition), absence of PZ in test [4] was 1900; in test [5], 2300.
